Measured values from patent US20080118529A1 (published 2008).
“And” between values parts separate entries of the source, which are not always exact repeats. Equal entries are not always repeated.

B1: Tissue-type plasminogen activator (tPA, Actilyse, Boehringer-Ingelheim) (enzyme, human, UniProt P00750 36-562, looked up)
chain: SYQVICRDEKTQMIYQQHQSWLRPVLRSNRVEYCWCNSGRAQCHSVPVKSCSEPRCFNGGTCQQALYFSDFVCQCPEGFAGKCCEIDTRATCYEDQGISYRGTWSTAESGAECTNWNSSALAQKPYSGRRPDAIRLGLGNHNYCRNPDRDSKPWCYVFKAGKYSSEFCSTPACSEGNSDCYFGNGSAYRGTHSLTESGASCLPWNSMILIGKVYTAQNPSAQALGLGKHNYCRNPDGDAKPWCHVLKNRRLTWEYCDVPSCSTCGLRQYSQPQFRIKGGLFADIASHPWQAAIFAKHRRSPGERFLCGGILISSCWILSAAHCFQERFPPHHLTVILGRTYRVVPGEEEQKFEVEKYIVHKEFDDDTYDNDIALLQLKSDSSRCAQESSVVRTVCLPPADLQLPDWTECELSGYGKHEALSPFYSERLKEAHVRLYPSSRCTSQHLLNRTVTDNMLCAGDTRSGGPQANLHDACQGDSGGPLVCLNDGRMTLVGIISWGLGCGQKDVPGVYTKVTNYLDWIRDNMRP
notes: also called full-length tPA; recombinant human tPA

Assays:
albumin (ICN, 160069) = target: T1, albumin (ICN, 160069) (bovine, UniProt P02769 25-607); experiment: ELISA; protein incubated with DXS500k or buffer immobilized, overlaid with tPA in 10 mM εACA
T1 construct: also called bovine serum albumin (ICN, #160069, fraction V)

[1] = target: T2, human factor XII from plasma (Calbiochem, #233490) (human, UniProt P00748 20-615); experiment: ELISA; factor XII incubated with DXS500k or buffer immobilized, overlaid with tPA in 10 mM εACA
T2 construct: also called FXII
T2 sequence (looked up): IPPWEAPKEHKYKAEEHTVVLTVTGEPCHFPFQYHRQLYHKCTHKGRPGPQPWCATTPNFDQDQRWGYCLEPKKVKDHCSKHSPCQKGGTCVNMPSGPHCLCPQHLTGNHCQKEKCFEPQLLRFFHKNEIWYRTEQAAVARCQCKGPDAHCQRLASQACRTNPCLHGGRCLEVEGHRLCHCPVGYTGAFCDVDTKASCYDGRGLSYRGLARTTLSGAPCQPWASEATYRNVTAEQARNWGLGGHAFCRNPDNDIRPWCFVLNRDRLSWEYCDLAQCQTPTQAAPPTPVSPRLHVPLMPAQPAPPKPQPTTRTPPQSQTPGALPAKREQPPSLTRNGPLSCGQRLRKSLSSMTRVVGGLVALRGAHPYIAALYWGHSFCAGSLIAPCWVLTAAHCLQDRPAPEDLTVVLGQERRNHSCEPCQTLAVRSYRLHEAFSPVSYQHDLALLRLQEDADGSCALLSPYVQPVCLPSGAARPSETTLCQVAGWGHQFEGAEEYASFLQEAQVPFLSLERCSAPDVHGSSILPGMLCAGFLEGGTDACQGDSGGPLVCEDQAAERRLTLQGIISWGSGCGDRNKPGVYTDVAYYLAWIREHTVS

[2] = target: T2, human factor XII from plasma …; experiment: ELISA: factor XII coated, concentration series of β2GPI, detection with monoclonal antibody 2B2
[3] = target: B1; experiment: ELISA: tPA coated, concentration series of β2GPI, detection with monoclonal antibody 2B2

T1 sequence (P02769 25-607 limits assumed): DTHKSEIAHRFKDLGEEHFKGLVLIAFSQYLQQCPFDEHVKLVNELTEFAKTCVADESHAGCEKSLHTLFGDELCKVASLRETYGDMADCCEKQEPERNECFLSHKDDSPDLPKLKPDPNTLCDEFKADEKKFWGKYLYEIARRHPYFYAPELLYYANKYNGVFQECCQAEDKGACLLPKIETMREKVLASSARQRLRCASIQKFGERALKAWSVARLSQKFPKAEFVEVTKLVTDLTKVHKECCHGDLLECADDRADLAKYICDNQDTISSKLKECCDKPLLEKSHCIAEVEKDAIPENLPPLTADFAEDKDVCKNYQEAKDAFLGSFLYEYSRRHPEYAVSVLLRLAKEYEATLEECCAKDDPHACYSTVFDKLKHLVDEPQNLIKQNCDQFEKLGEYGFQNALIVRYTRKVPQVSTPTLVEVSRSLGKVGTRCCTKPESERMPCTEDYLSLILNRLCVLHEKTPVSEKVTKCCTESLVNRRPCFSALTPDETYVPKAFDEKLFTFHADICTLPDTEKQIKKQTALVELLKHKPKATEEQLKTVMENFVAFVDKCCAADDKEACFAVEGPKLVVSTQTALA

B1 was tested, and the “factor of increase in tPA binding (protein exposed to DXS500k against protein in buffer only)” value (albumin (ICN, 160069)) was 1.3 fold and the binding result [1] was “binds”.

B2: recombinant human β2-glycoprotein I (made in insect cells) (other, UniProt P02749 20-345, looked up)
chain: GRTCPKPDDLPFSTVVPLKTFYEPGEEITYSCKPGYVSRGGMRKFICPLTGLWPINTLKCTPRVCPFAGILENGAVRYTTFEYPNTISFSCNTGFYLNGADSAKCTEEGKWSPELPVCAPIICPPPSIPTFATLRVYKPSAGNNSLYRDTAVFECLPQHAMFGNDTITCTTHGNWTKLPECREVKCPFPSRPDNGFVNYPAKPTLYYKDKATFGCHDGYSLDGPEEIECTKLGNWSAMPSCKASCKVPVKKATVVYQGERVKIQEKFKNGMLHGDKVSFFCKNKEKKCSYTEDAQCIDGTIEVPKCFKEHSSLAFWKTDASDVKPC
notes: also called recombinant β2GPI; rec. β2GPI
For B2, the Kd [2] was 0.9 µg/mL and 20 nM and the Kd [3] was 2.3 µg/mL and 51 nM.
